Data from patent US12296066B2, “Methods of wound healing with Serp-1 polypeptides” (ARIZONA BOARD OF REGENTS ON BEHALF OF ARIZONA STATE …, priority 2018, dated 2025).

What was measured:
[1] = tested on: collagen bundles (Type 3 / Type 1); experiment: Herovici's staining of collagen maturation in healed wounds; type: in vivo, C57BL6/J mice
Description: (§1) Skin tissues were collected at day 1, 4, 7 and 15 and fixed in 10% neutral-buffered formalin for at least two days before tissue processing with a Leica TP1050 and embedded in paraffin with a Leica EG1160 embedding station. Blocks were serially sectioned using a Leica RM2165 microtome (4 μm sections) and stained with hematoxylin and eosin (H&E) by standard procedure. Sections were additionally stained by immunohistochemistry (IHC) for CD31 (Abcam, #ab28364, 1:100), Ly6G (Invitrogen, #14-5931-82, 1:100), and arginase-1 (Cell Signaling, #93668, 1:200), and with Masson's trichrome (Masson, J Tech Methods. 12 (1929) 75-90) and Herovici's polychrome (Herovici, Stain Technol. 38 (1963) 204-6, Levame and Meyer, Pathol. Biol. (Paris). 35 (1987) 1183-8) as special stains for collagen.
Collagens play a crucial role in angiogenesis during tissue regeneration. It is well known that collagen I a central factor allowing for endothelial cells to initiate precapillary cord formation. In contrast increased deposition of collagen III reduces the density of blood vessels at sites of wound healing (Davis, Circ. Res. (2005). doi:10.1161/01.RES.0000191547.64391.e3, O'Rourke, Adv. Wound Care. (2018). doi:10.1089/wound.2018.0827). […]

CD31-positive vessels = experiment: CD31 immunohistochemistry of peri-wound vascularization; type: in vivo, C57BL6/J mice
Description: (§2) Skin tissues were collected at day 1, 4, 7 and 15 and fixed in 10% neutral-buffered formalin for at least two days before tissue processing with a Leica TP1050 and embedded in paraffin with a Leica EG1160 embedding station. Blocks were serially sectioned using a Leica RM2165 microtome (4 μm sections) and stained with hematoxylin and eosin (H&E) by standard procedure. […]
(§3) Slides were imaged on an Olympus BX51 upright microscope equipped with an Olympus DP74 high-resolution camera operated by cellSens Dimensions v1.16. Images were collected as objective-calibrated TIFFs and subsequently analyzed and processed in Image)/FIJI (Schindelin et al., Nat. […] Positively stained cells were counted per high power field for each treatment group.
The blood vessels were analyzed by immunohistochemistry with antibodies against the endothelial marker CD31 (also called PECAM-1), a marker for endothelial cells commonly used to indicate wound bed blood vessels (Vanchinathan et al., Am. J. Clin. Pathol. (2015). doi:10.1309/AJCPRHM8CZH5EMFD). The number of positive staining vessels in different optical fields was quantified from four pairs of saline- and Serp-1-treated wounds. […]

Ly6G positive cells = experiment: Ly6G immunohistochemistry, neutrophil infiltration in wounds; type: in vivo, C57BL6/J mice; details: day 4; p=0.110
Description: as §1
Slides were imaged on an Olympus BX51 upright microscope equipped with an Olympus DP74 high-resolution camera operated by cellSens Dimensions v1.16. Images were collected as objective-calibrated TIFFs and subsequently analyzed and processed in Image)/FIJI (Schindelin et al., Nat. Methods. 9 (2012) 676-682. doi:10.1038/nmeth.2019). Positively stained cells were counted per high power field for each treatment group.
Therefor neutrophil infiltration was analyzed at sites of wound healing with and without treatment with Serp-1 at day 4 by immunohistochemistry with antibodies against Ly6G (FIG. 6A).

[2] = intravenous bolus injections, patients with unstable angina; cited from earlier work
[3] = tested on: Arg-1 positive macrophages; experiment: Arginase-1 immunohistochemistry, M2 macrophage differentiation in wounds; type: in vivo, C57BL6/J mice
Description: as §2, §3
Additionally the differentiation of M2 macrophages was =analyzed (FIG. 6C), during wound-healing (Kotwal and Chien, Macrophage differentiation in normal and accelerated wound healing, in: Results Probl. Cell Differ., 2017. doi:10.1007/978-3-319-54090-0_14), by IHC with antibodies against Arginase-1 (EC3.5.3.1). […]

dermal collagen fibers = experiment: quantitative collagen texture analysis, Masson's trichrome; type: in vivo, C57BL6/J mice; details: 15 days wound healing
Method: as §2
Quantitative collagen texture analysis was performed in Image)/FIJI (Schindelin, Nat. […] Local thickness of collagen bundles was determined with the plugin “LocalThickness 4.0.2” using the methods described by Saito and Toriwaki (Saito, Pattern Recognit. 27 (1994) 1551-1565. doi:10.1016/0031-3203(94)90133-3), and by Hildebrand and Rüegsegger (Hildebrand, J. Microsc. 185 (1997) 67-75. doi:10.1046/j.1365-2818.1997.1340694.x.). Regularity of collagen bundles was determined with the plugin “Directionality” as previously reported (Sensini, Biofabrication. 9 (2017) 015025. doi:10.1088/1758-5090/aa6204).
During wound healing, collagen accumulation and organization are correlated with scar formation. […] Local scar thickness (FIG. 7C) and directionality (FIG. 7D) of collagen in scars were analyzed using ImageJ after Masson's trichrome staining under microscopic examination (20× magnification).

[4] = tested on: full thickness dorsal skin wound; experiment: full-thickness splinted excisional wound healing model, planimetric wound closure; type: in vivo, C57BL6/J mice
Description: The mouse dermal wound healing splinted model was used for these studies where the contraction is held by a donut-shaped splint remains the most widely accepted and extensively used model to study skin wound healing in mice (Galiano et al., Wound Repair Regen. 12 (2004) 485-492. doi:10.1111/j.1067-1927.2004.12404.x, Wang et al., Nat. Protoc. 8 (2013) 302-309. doi:10.1038/nprot.2013.002, Dunn et al., J. Vis. Exp. (2013) 1-6. doi:10.3791/50265).
Mice (N=29 mice) were anesthetized by intraperitoneal injection of a cocktail of 120 mg/kg ketamine and 6 mg/kg xylazine, 0.1 ml/25 g bodyweight and prepped by shaving an area of approximately 1×1 inch spanning from between the ears to the peak of the spine, centered between each shoulder. The shaved area was sterilized by two washes with 2% chlorhexidine gluconate solution (Dyna-Hex 2®, Xttrium Laboratories) and 70% ethanol using cotton swabs.
A 3.5 mm punch biopsy was performed centered in the shaved area to create the full-thickness wound excision. Treatment or control as saline solution or chitosan-collagen hydrogel preparation were applied to the wound using a hand-held micropipette. In brief, 13 mice were given saline inoculation at the time of injury, 6 mice were given Serp-1 at the time of injury at doses or 1 or 2 μg. Six mice were given 1 μg of Serp-1 and followed by second bolus at 3 days post wounding. A second group of 6 mice were given Serp-1/chitosan treatment applied at the time of injury and 6 mice were given chitosan gel alone.
A donut-shaped silicon splint (O.D. 15 mm; I.D. 5.0 mm; Culture-Well™ Grace Biolabs) with Tegaderm™ (3M Company) affixed to one side was coated with cyanoacrylate glue (Krazy Glue®) on the opposite side and carefully placed on the back of the mouse with the biopsy site centered within the inner hole. Six interrupted sutures (4-0 black Ethilon monofilament with a FS-2 reverse cutting needle; Ethicon, Inc.) were placed around the outer edge of the splint to complete the procedure. Mice were allowed to recover and returned to single-housed cages for the remainder of the trial.
On the day of the procedure (Day 0) and on every subsequent day of follow-up, for a total of 15 days, mice were collected and wounds assessed while awake. Digital images were collected using a Google Pixel model 1 or 3XL smartphone camera. Planimetric measurements of wound healing progress was performed in Image)/FIJI and calibrated to known pixel-to-size measurements (Schindelin et al., Nat. Methods. 9 (2012) 676-682. doi:10.1038/nmeth.2019).
Serp-1 has proven to be an effective modulator of coagulation pathways and immune responses in numerous animal models of vascular injury and transplant. […] In this study, the efficacy of topical Serp-1 application was tested in a full-thickness excisional model of wound healing (FIG. 2A). A 3.5 mm biopsy punch was used to create a full thickness dorsal skin wound in C57BL6/J wildtype mice. Wounds were produced through the entirety of the dermis without puncturing the panniculus carnosus. In an initial analysis, Serp-1 was applied in saline solution and compared to control saline solution alone, given directly to the wound bed. A silicone splint with a gas-permeable Tegaderm layer was sutured over the bed. The silicone splint prevented wound contraction, allowing direct visualization and photography of wound re-epithelialization during the course of a 15-day healing period (FIG. 2B).

B1: Serp-1: Recombinant Serp-1 (m008.1L), secreted Myxomavirus glycoprotein serpin, expressed in CHO cells; SEQ ID NO: 1 (protein, listed as Homo sapiens)
chain: MKYLVLVLCLTSCACRDIGLWTFRYVYNESDNVVFSPYGLTSALSVLRIAAGGNTKREIDVPESVVEDSDAFLALRELFVDASVPLRPEFTAEFSSRFNTSVQRVTFNSENVKDVINSYVKDKTGGDVPRVLDASLDRDTKMLLLSSVRMKTSWRHVFDPSFTTDQPFYSGNVTYKVRMMNKIDTLKTETFTLRNVGYSVTELPYKRRQTAMLLVVPDDLGEIVRALDLSLVRFWIRNMRKDVCQVVMPKFSVESVLDLRDALQRLGVRDAFDPSRADFGQASPSNDLYVTKVLQTSKIEADERGTTASSDTAITLIPRNALTAIVANKPFMFLIYHKPTTTVLFMGTIT
[1]; Herovici's stain, FIG. 8
  ratio of collagen types in treated wound: increasing the ratio of collagen III to collagen I
[1]; day 15, versus saline-treated wounds
  collagen maturation by Herovici's stain: greater degree of maturation
CD31-positive vessels; day 7, peri-wound area, saline control 10.0±2.5
  number of vessels each image (CD31-positive): 36.3±4.9
CD31-positive vessels; day 7, versus saline alone
  appearance of CD31-positive vessels: appreciably more “mature” CD31-positive vessels, with increased length and thickness
Ly6G positive cells
  Ly6G positive cells in healing tissues: non significant trend toward an increase
[2]
  safety: proved safe
[3]; day 4, compared to control wounds
  density of Arg-1 positive macrophages: significantly increased density
[3]; day 7, compared to untreated wounds
  density of Arg-1 positive (M2) macrophages: significant higher
Dermal collagen fibers
  collagen bundle thickness: increased bundle thickness
  collagen directionality: more organized directionality
[4]; 1.0 μg Serp-1, in the first week
  wound closure earlier compared to saline group: four
[4]; 1.0 μg/wound at day 0 and day 3, day 5
  wound closure: 40%
[4]; 1.0 μg/wound/mouse, single dose, mean
  days less to achieve same degree of closure as control group at day 7 (or 2.0 μg at day 5): 3 days
[4]; 2.0 μg Serp-1, day 5
  wound closure: greater than 20%
[4]; 2.0 μg Serp-1, day 7
  wound closure: 47%
[4]; 2 μg/mouse, single topical dose day 0, p<0.0001
  wound healing accelerated by: approximately 3 days
[4]; Serp-1 [1+1]: 1 μg/mouse on Days 0 and 3 (FIG. 2C)
  day of healing equivalent to saline alone on Day 7: 3 days
[4]; mouse model, conclusion
  faster closure rate: 40%
  scarring: reduction in scarring
[4]; repeated treatment group (1.0 μg day 0 + day 3), 15 days of observation
  completeness of closure: more completely closure than other groups
[4]; single dose treatment groups, day 5
  wound closure: 30%
[4]; topical, doses of between 1 microgram and 2 micrograms, punch wounds on mouse back
  time to wound closure accelerated by, compared to saline: 2 to 5 days
